# Measurements published in patent US20220290165.
# Read-outs that look alike come from different tables or passages of the source.
# B1: Trichoderma reesei pep5 (protein)
# chain: MKFHAAALTLACLASSASAGVAQPRADEVESAEQGKTFSLEQIPNERYKGNIPAAYISALAKYSPTIPDKIKHAIEINPDLHRKFSKLINAGNMTGTAVASPPPGADAEYVLPVKIGTPPQTLPLNLDTGSSDLWVISTDTYPPQVQGQTRYNVSASTTAQRLIGESWVIRYGDGSSANGIVYKDRVQIGNTFFNQQAVESAVNISNEISDDSFSSGLLGAASSAANTVRPDRQTTYLENIKSQLARPVFTANLKKGKPGNYNFGYINGSEYIGPIQYAAINPSSPLWEVSVSGYRVGSNDTKYVPRVWNAIADTGTTLLLVPNDIVSAYYAQVKGSTFSNDVGMMLVPCAATLPDFAFGLGNYRGVIPGSYINYGRMNKTYCYGGIQSSEDAPFAVLGDIALKAQFVVFDMGNKVVGFANKNTNV
# B2: Trichoderma reesei gap1 (protein)
# chain: TVQSNWGGAILEGSGFTAASATVNVPRGGGGSNAAGSAWVGIDGASCQTAILQTGFDWYGDGTYDAWYEWYPEFAADFSGIDIRQGDQIAMSVVATSLTGGSATLENLSTGQKVTQNFNRVTAGSLCETSAEFIIEDFEECNSNGSNCQPVPFASFSPAITFSSATATRSGRSVSLSGAEITEVIVNNQDLTRCSVSGSSTLTCSYV
# B3: Trichoderma reesei pep2 (protein)
# chain: MQPSFGSFLVTVLSASMAAGSVIPSTNANPGSFEIKRSANKAFTGRNGPLALARTYAKYGVEVPKTLVDAIQLVKSIQLAKRDSATVTATPDHDDIEYLVPVKIGTPPQTLNLDFDTGSSDLWVFSSDVDPTSSQGHDIYTPSKSTSSKKLEGASWNITYGDRSSSSGDVYHDIVSVGNLTVKSQAVESARNVSAQFTQGNNDGLVGLAFSSINTVKPTPQKTWYDNIVGSLDSPVFVADLRHDTPGSYHFGSIPSEASKAFYAPIDNSKGFWQFSTSSNISGQFNAVADTGTTLLLASDDLVKAYYAKVQGARVNVFLGGYVFNCTTQLPDFTFTVGEGNITVPGTLINYSEAGNGQCFGGIQPSGGLPFAIFGDIALKAAYVIFDSGNKQVGWAQKK
# B4: Trichoderma reesei pep3 (protein)
# chain: MEAILQAQAKFRLDRGLQKITAVRNKNYKRHGPKSYVYLLNRFGFEPTKPGPYFQQHRIHQRGLAHPDFKAAVGGRVTRQKVLAKKVKEDGTVDAGGSKTGEVDAEDQQNDSEYLCEVTIGTPGQKLMLDFDTGSSDLWVFSTELSKHLQENHAIFDPKKSSTFKPLKDQTWQISYGDGSSASGTCGSDTVTLGGLSIKNQTIELASKLAPQFAQGTGDGLLGLAWPQINTVQTDGRPTPANTPVANMIQQDDIPSDAQLFTAAFYSERDENAESFYTFGYIDQDLVSASGQEIAWTDVDNSQGFWMFPSTKTTINGKDISQEGNTAIADTGTTLALVSDEVCEALYKAIPGAKYDDNQQGYVFPINTDASSLPELKVSVGNTQFVIQPEDLAFAPADDSNWYGGVQSRGSNPFDILGDVFLKSVYAIFDQGNQRFGAVPKIQAKQNLQPPQ
# Tests used:
# pepstatin A [1] = system: pepstatin A
# [2] = target: soybean trypsin inhibitor (SBTI) (UniProt P01070)
# Chain of UniProt P01070 (P01070 25-205): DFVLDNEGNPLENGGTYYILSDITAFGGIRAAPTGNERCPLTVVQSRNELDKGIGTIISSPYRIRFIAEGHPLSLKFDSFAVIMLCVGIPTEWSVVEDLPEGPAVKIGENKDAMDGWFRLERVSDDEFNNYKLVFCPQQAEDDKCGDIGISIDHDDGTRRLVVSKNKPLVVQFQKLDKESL
# pepstatin A [3] = target: pepstatin A; remark: listed apart in the source
Molecule,casein digestion by the SIP purified fractions at pH 5.5 (pepstatin A [3]),further results
Trichoderma reesei pep4,–,casein digestion by the SIP purified fractions at pH 5.5 (pepstatin A [1]): a large portion of the SIP protease activity was inhibited by pepstatin A
Trichoderma reesei slp2,–,casein digestion by the SIP purified fractions at pH 5.5 [2]: The SBTI and chymostatin were able to inhibit the SLP2 protease in the purified sample
B1,a large portion of the SIP protease activity was inhibited by pepstatin A,–
B2,–,casein digestion by the SIP purified fractions at pH 5.5 (LIP peptide): inhibited the protease activity slightly less compared to SIP inhibitor
B3,a large portion of the SIP protease activity was inhibited by pepstatin A,–
B4,a large portion of the SIP protease activity was inhibited by pepstatin A,–
